Values quoted from earlier work as cited in publication PMC3894449.

How the values were obtained:
[1] = target: IL-15Ralpha (Homo sapiens) (UniProt Q13261)
[2] = target: IL-2Ralpha (Homo sapiens) (UniProt P01589)
Sequence of UniProt P01589 (P01589 22-240): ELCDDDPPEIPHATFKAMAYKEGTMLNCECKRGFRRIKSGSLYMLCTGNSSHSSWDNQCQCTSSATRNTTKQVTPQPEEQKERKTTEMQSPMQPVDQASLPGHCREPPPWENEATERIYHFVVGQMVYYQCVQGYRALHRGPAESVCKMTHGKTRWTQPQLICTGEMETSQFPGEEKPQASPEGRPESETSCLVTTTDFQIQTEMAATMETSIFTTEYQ

Sequence of UniProt Q13261 (Q13261 31-205): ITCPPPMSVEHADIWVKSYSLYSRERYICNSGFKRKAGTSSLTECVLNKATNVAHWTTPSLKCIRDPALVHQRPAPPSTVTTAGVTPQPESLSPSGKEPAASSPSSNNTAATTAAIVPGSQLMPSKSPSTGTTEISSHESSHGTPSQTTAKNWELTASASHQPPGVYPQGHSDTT

For IL-15 (from UniProt P40933), the Kd [1] is given as 0.05 nM.

In the case of IL-2 (from UniProt P60568), the Kd [2] is given as 20 nM.
